Laboratory results taken from US7572764B2, “Uses of chemically-modified cholinesterases for detoxification of organophosporus compounds” (priority 2001, dated 2009).

Experiment: Clearance experiments in mice, pharmacokinetic profiles
Conditions: mice; for MRT: mean residence time, noncompartmental model
Method: The pharmacokinetic profiles of non-modified and various preparations of PEG-modified AChE were resolved. Clearance experiments in mice (3 to 6 ICR male mice per enzyme sample) and analysis of pharmacokinetic profiles were carried out as described essentially previously [Kronman, C., et al. (1992), Gene 121, 295-304]. The study was approved by the local ethical committee on animal experiments. Mice were injected with the various rHuAChE preparations (40 μg/mouse in 0.2 ml PBS). Residual AChE activity in blood samples was measured and all values were corrected for background hydrolytic activity in the blood (using samples withdrawn 1 hour before performing the experiment). AChE activity values in samples removed immediately after injection were assigned a value of 100% and used for calculation of residual activity. […] This model enables determination of the parameters A and B which represent the fractions of the material removed from the circulation in the first-fast and second-slow elimination phases respectively, and T1/2α and T1/2β which represent the circulatory half-life values of the enzyme in the fast and slow phases. The pharmacokinetic parameters MRT (mean residence time, which reflects the average length of time the administered molecules are retained in the organism) and CL (clearance, which represents the proportionality factor relating the rate of substance elimination to its plasma concentration (CL=dose/area under the concentration-time curve), were independently obtained by analyzing the clearance data according to a noncompartmental pharmacokinetic model using the WinNonlin computer program. The comparative results are set forth in Table 3 below.

Row | Molecule | pharmacokinetic behavior after modification by PEG versus non-modified enzyme | further results
1 | partially desialylated BChE (protein, UniProt P06276 29-602, looked up, partially desialylated) Cholinesterase: EDDIIIATKNGKVRGMNLTVFGGTVTAFLGIPYAQPPLGRLRFKKPQSLTKWSDIWNATKYANSCCQNIDQSFPGFHGSEMWNPNTDLSEDCLYLNVWIPAPKPKNATVLIWIYGGGFQTGTSSLHVYDGKFLARVERVIVVSMNYRVGALGFLALPGNPEAPGNMGLFDQQLALQWVQKNIAAFGGNPKSVTLFGESAGAASVSLHLLSPGSHSLFTRAILQSGSFNAPWAVTSLYEARNRTLNLAKLTGCSRENETEIIKCLRNKDPQEILLNEAFVVPYGTPLSVNFGPTVDGDFLTDMPDILLELGQFKKTQILVGVNKDEGTAFLVYGAPGFSKDNNSIITRKEFQEGLKIFFPGVSEFGKESILFHYTDWVDDQRPENYREALGDVVGDYNFICPALEFTKKFSEWGNNAFFYYFEHRSSKLPWPEWMGVMHGYEIEFVFGLPLERRDNYTKAEEILSRSIVKRWANFAKYGNPNETQNNSTSWPVFKSTEQKYLTLNTESTRIMTKLRAQQCRFWTSFFPKVLEMTGNIDEAEWEWKAGFHRWNNYMMDWKNQFNDYTSKKESCVGL |  | MRT: 2.67 h
2 | non-treated serum-derived BChE (protein, UniProt P06276 29-602, looked up) Cholinesterase: EDDIIIATKNGKVRGMNLTVFGGTVTAFLGIPYAQPPLGRLRFKKPQSLTKWSDIWNATKYANSCCQNIDQSFPGFHGSEMWNPNTDLSEDCLYLNVWIPAPKPKNATVLIWIYGGGFQTGTSSLHVYDGKFLARVERVIVVSMNYRVGALGFLALPGNPEAPGNMGLFDQQLALQWVQKNIAAFGGNPKSVTLFGESAGAASVSLHLLSPGSHSLFTRAILQSGSFNAPWAVTSLYEARNRTLNLAKLTGCSRENETEIIKCLRNKDPQEILLNEAFVVPYGTPLSVNFGPTVDGDFLTDMPDILLELGQFKKTQILVGVNKDEGTAFLVYGAPGFSKDNNSIITRKEFQEGLKIFFPGVSEFGKESILFHYTDWVDDQRPENYREALGDVVGDYNFICPALEFTKKFSEWGNNAFFYYFEHRSSKLPWPEWMGVMHGYEIEFVFGLPLERRDNYTKAEEILSRSIVKRWANFAKYGNPNETQNNSTSWPVFKSTEQKYLTLNTESTRIMTKLRAQQCRFWTSFFPKVLEMTGNIDEAEWEWKAGFHRWNNYMMDWKNQFNDYTSKKESCVGL |  | circulatory residence time (in words): resides in the circulation for extended periods of time
3 | PEG-modified sialidase-treated AChE (conjugate, UniProt P22303 32-614, looked up, PEG; sialidase-treated) Acetylcholinesterase: EGREDAELLVTVRGGRLRGIRLKTPGGPVSAFLGIPFAEPPMGPRRFLPPEPKQPWSGVVDATTFQSVCYQYVDTLYPGFEGTEMWNPNRELSEDCLYLNVWTPYPRPTSPTPVLVWIYGGGFYSGASSLDVYDGRFLVQAERTVLVSMNYRVGAFGFLALPGSREAPGNVGLLDQRLALQWVQENVAAFGGDPTSVTLFGESAGAASVGMHLLSPPSRGLFHRAVLQSGAPNGPWATVGMGEARRRATQLAHLVGCPPGGTGGNDTELVACLRTRPAQVLVNHEWHVLPQESVFRFSFVPVVDGDFLSDTPEALINAGDFHGLQVLVGVVKDEGSYFLVYGAPGFSKDNESLISRAEFLAGVRVGVPQVSDLAAEAVVLHYTDWLHPEDPARLREALSDVVGDHNVVCPVAQLAGRLAAQGARVYAYVFEHRASTLSWPLWMGVPHGYEIEFIFGIPLDPSRNYTAEEKIFAQRLMRYWANFARTGDPNEPRDPKAPQWPPYTAGAQQYVSLDLRPLEVRRGLRAQACAFWNRFLPKLLSATDTLDEAERQWKAEFHRWSSYMVHWKNQFDHYSKQDRCSDL | significantly improved | 
4 | PEG-modified non-glycosylated AChE (conjugate, UniProt P22303 32-614, looked up, PEG; non-glycosylated) Acetylcholinesterase: EGREDAELLVTVRGGRLRGIRLKTPGGPVSAFLGIPFAEPPMGPRRFLPPEPKQPWSGVVDATTFQSVCYQYVDTLYPGFEGTEMWNPNRELSEDCLYLNVWTPYPRPTSPTPVLVWIYGGGFYSGASSLDVYDGRFLVQAERTVLVSMNYRVGAFGFLALPGSREAPGNVGLLDQRLALQWVQENVAAFGGDPTSVTLFGESAGAASVGMHLLSPPSRGLFHRAVLQSGAPNGPWATVGMGEARRRATQLAHLVGCPPGGTGGNDTELVACLRTRPAQVLVNHEWHVLPQESVFRFSFVPVVDGDFLSDTPEALINAGDFHGLQVLVGVVKDEGSYFLVYGAPGFSKDNESLISRAEFLAGVRVGVPQVSDLAAEAVVLHYTDWLHPEDPARLREALSDVVGDHNVVCPVAQLAGRLAAQGARVYAYVFEHRASTLSWPLWMGVPHGYEIEFIFGIPLDPSRNYTAEEKIFAQRLMRYWANFARTGDPNEPRDPKAPQWPPYTAGAQQYVSLDLRPLEVRRGLRAQACAFWNRFLPKLLSATDTLDEAERQWKAEFHRWSSYMVHWKNQFDHYSKQDRCSDL | significantly improved | 
5 | PEG-modified mono-glycosylated AChE (conjugate, UniProt P22303 32-614, looked up, PEG; mono-glycosylated) Acetylcholinesterase: EGREDAELLVTVRGGRLRGIRLKTPGGPVSAFLGIPFAEPPMGPRRFLPPEPKQPWSGVVDATTFQSVCYQYVDTLYPGFEGTEMWNPNRELSEDCLYLNVWTPYPRPTSPTPVLVWIYGGGFYSGASSLDVYDGRFLVQAERTVLVSMNYRVGAFGFLALPGSREAPGNVGLLDQRLALQWVQENVAAFGGDPTSVTLFGESAGAASVGMHLLSPPSRGLFHRAVLQSGAPNGPWATVGMGEARRRATQLAHLVGCPPGGTGGNDTELVACLRTRPAQVLVNHEWHVLPQESVFRFSFVPVVDGDFLSDTPEALINAGDFHGLQVLVGVVKDEGSYFLVYGAPGFSKDNESLISRAEFLAGVRVGVPQVSDLAAEAVVLHYTDWLHPEDPARLREALSDVVGDHNVVCPVAQLAGRLAAQGARVYAYVFEHRASTLSWPLWMGVPHGYEIEFIFGIPLDPSRNYTAEEKIFAQRLMRYWANFARTGDPNEPRDPKAPQWPPYTAGAQQYVSLDLRPLEVRRGLRAQACAFWNRFLPKLLSATDTLDEAERQWKAEFHRWSSYMVHWKNQFDHYSKQDRCSDL | significantly improved | 
6 | PEG-modified fully sialylated AChE (conjugate, UniProt P22303 32-614, looked up, PEG; fully sialylated) Acetylcholinesterase: EGREDAELLVTVRGGRLRGIRLKTPGGPVSAFLGIPFAEPPMGPRRFLPPEPKQPWSGVVDATTFQSVCYQYVDTLYPGFEGTEMWNPNRELSEDCLYLNVWTPYPRPTSPTPVLVWIYGGGFYSGASSLDVYDGRFLVQAERTVLVSMNYRVGAFGFLALPGSREAPGNVGLLDQRLALQWVQENVAAFGGDPTSVTLFGESAGAASVGMHLLSPPSRGLFHRAVLQSGAPNGPWATVGMGEARRRATQLAHLVGCPPGGTGGNDTELVACLRTRPAQVLVNHEWHVLPQESVFRFSFVPVVDGDFLSDTPEALINAGDFHGLQVLVGVVKDEGSYFLVYGAPGFSKDNESLISRAEFLAGVRVGVPQVSDLAAEAVVLHYTDWLHPEDPARLREALSDVVGDHNVVCPVAQLAGRLAAQGARVYAYVFEHRASTLSWPLWMGVPHGYEIEFIFGIPLDPSRNYTAEEKIFAQRLMRYWANFARTGDPNEPRDPKAPQWPPYTAGAQQYVSLDLRPLEVRRGLRAQACAFWNRFLPKLLSATDTLDEAERQWKAEFHRWSSYMVHWKNQFDHYSKQDRCSDL | significantly improved | 
7 | FBS-AChE (protein, UniProt P23795 31-613, looked up) Acetylcholinesterase: EGPEDPELLVMVRGGRLRGLRLMAPRGPVSAFLGIPFAEPPVGPRRFLPPEPKRPWPGVLNATAFQSVCYQYVDTLYPGFEGTEMWNPNRELSEDCLYLNVWTPYPRPSSPTPVLVWIYGGGFYSGASSLDVYDGRFLTQAEGTVLVSMNYRVGAFGFLALPGSREAPGNVGLLDQRLALQWVQENVAAFGGDPTSVTLFGESAGAASVGMHLLSPPSRGLFHRAVLQSGAPNGPWATVGVGEARRRATLLARLVGCPPGGAGGNDTELVACLRARPAQDLVDHEWRVLPQESVFRFSFVPVVDGDFLSDTPEALINAGDFHGLQVLVGVVKDEGSYFLVYGAPGFSKDNESLISRAQFLAGVRVGVPQASDLAAEAVVLHYTDWLHPEDPARLREALSDVVGDHNVVCPVAQLAGRLAAQGARVYAYIFEHRASTLSWPLWMGVPHGYEIEFIFGLPLEPSLNYTIEERTFAQRLMRYWANFARTGDPNDPRDPKAPQWPPYTAGAQQYVSLNLRPLEVRRGLRAQACAFWNRFLPKLLSATDTLDEAERQWKAEFHRWSSYMVHWKNQFDHYSKQDRCSDL |  | MRT: 22.33 h
8 | PEG modified FBS-AChE (conjugate, UniProt P23795 31-613, looked up, PEG) Acetylcholinesterase: EGPEDPELLVMVRGGRLRGLRLMAPRGPVSAFLGIPFAEPPVGPRRFLPPEPKRPWPGVLNATAFQSVCYQYVDTLYPGFEGTEMWNPNRELSEDCLYLNVWTPYPRPSSPTPVLVWIYGGGFYSGASSLDVYDGRFLTQAEGTVLVSMNYRVGAFGFLALPGSREAPGNVGLLDQRLALQWVQENVAAFGGDPTSVTLFGESAGAASVGMHLLSPPSRGLFHRAVLQSGAPNGPWATVGVGEARRRATLLARLVGCPPGGAGGNDTELVACLRARPAQDLVDHEWRVLPQESVFRFSFVPVVDGDFLSDTPEALINAGDFHGLQVLVGVVKDEGSYFLVYGAPGFSKDNESLISRAQFLAGVRVGVPQASDLAAEAVVLHYTDWLHPEDPARLREALSDVVGDHNVVCPVAQLAGRLAAQGARVYAYIFEHRASTLSWPLWMGVPHGYEIEFIFGLPLEPSLNYTIEERTFAQRLMRYWANFARTGDPNDPRDPKAPQWPPYTAGAQQYVSLNLRPLEVRRGLRAQACAFWNRFLPKLLSATDTLDEAERQWKAEFHRWSSYMVHWKNQFDHYSKQDRCSDL | significantly improved | 
